One assay deals with human NW231 tumors. In words: NW231 xenograft tumor establishment, IIA1 with DOXIL. Conditions: 24 days post-implant (control TIB ~425 mm^3). In kind it is in vivo, SCID mice. How it is done: The following experiment was conducted in order to determine the efficacy of the anti-α5β1 integrin antibody, IIA1 in combination with the chemotherapeutic agent, DOXIL®, for preventing establishment of human NW231 tumors in vivo. DOXIL® is a liposome encapsulated formulation of doxorubicin HCl, a cytotoxic anthracycline antibiotic isolated from Streptomyces peucetius. The NW231 cell line originated from breast cancer and is considered a good model for studying treatments for breast cancer.
Four to six week old female SCID mice obtained from Taconic Farms and maintained in micro-isolator cages were inoculated in the mammary fat pads with 1×10^7 NW231 cells. Animals received either TIB control (n=20) or […] (n=20) at 5 mg/kg for the first injection at the time of tumor cell inoculation. Subsequent treatments were at 0.7 mg/kg per injection. DOXIL® treatment was commenced 5 days post tumor cell inoculation. Chemotherapeutic doses were at 4 mg/kg for the first injection and at 2 mg/kg for subsequent injections. Reagents were delivered by intraperitoneal injection for four doses. Tumor volume was measured twice weekly and clinical and mortality observations were performed daily according to IACUC regulations.

A further assay has as its system refractory solid tumors. In words: Phase I dose-escalation study: tumor response (RECIST). It counts as in vivo, human. Set-up: key to Response outcome: Complete Response (CR): Disappearance of all target lesions confirmed by repeat imaging 25 to 28 days after CR first documented.; Partial Response (PR): At least a 30% decrease in the sum of LD of target lesions, taking as reference the baseline sum LD; Stable Disease (SD): Neither sufficient shrinkage to qualify for PR nor sufficient increase to qualify for PD, taking as references the smallest sum LD.; Progressive Disease (PD): At least a 20% increase in the sum of LD of target lesions, taking as reference the smallest sum LD recorded since treatment started, or the appearance of one or more new lesions. As for the experimental part:
A two-part Phase I open-label study was carried to determine the effects of treatment with up to 6 dose levels, from 0.5 mg/kg to 15.0 mg/kg of M200 (volociximab) in 21 human patients with a variety of refractory solid tumor types. The total duration of treatment for the first part was 6 weeks with physical assessments through 45 days after the last dose.
The dosing levels and schedule used in the study were as follows. M200 was administered to the 21 patients on days 1, 15, 22, 29, and 36. The dosing levels and numbers of patients per level were: 0.5 mg/kg (1 patient), 1.0 mg/kg (2 patient), 2.5 mg/kg (3 patients), 5.0 mg/kg (3 patients), 10.0 mg/kg (6 patients) and 15 mg/kg (6 patients). The dose was administered as an intravenous infusion over 1 hour. The first and second doses were separated by a two week period to allow sampling for single-dose pharmacokinetic data. The real-time PK measurements performed following the first dose were used to predict each patient's peak serum concentration following the fifth dose. If the predicted peak serum concentration following the fifth dose was <750 μg/mL, the patient received all 5 doses of M200. The remaining 3 doses were given weekly and followed by a 45-day evaluation period.
Patient evaluations during the study included the following: • a. Screening (within 14 days of study entry) of: medical history and physical examination, ECOG performance status, routine chemistry panel, complete blood count (CBC) with differential and platelets, sensitive C-reactive protein (CRP), urinalysis with microscopic analysis (UA/micro), electrocardiogram (ECG), chest radiograph (CXR), disease-directed body CT or MRI, urine pregnancy test within 48 hours prior to dosing, and coagulation studies (prothrombin [PT] and partial thromboplastin time [PTT]), anti-M200 antibodies (i.e., to detect cross-reactive HAMA or HACA) for patients who previously received murine or chimeric antibodies, head CT for patients with tumors that commonly metastasize to brain or CNS, and, in some patients, a biopsy to evaluate tumor vessel vascularity. • b. On-study laboratory evaluations: routine chemistry panel, urate, serum amylase, CBC with differential and platelets, UA/micro. • c. Routine disease-directed radiographic imaging (e.g., CT scanning) before and after treatment with M200 was used to evaluate tumor response using uni-dimensional, RECIST criteria. Target lesions were selected on the basis of their size (lesions with the longest diameter (LD)) and their suitability for accurate repetitive measurements (either by imaging techniques or clinically). A sum of the LD for all target lesions was calculated and reported as the baseline sum LD. The baseline sum LD was used as reference by which to characterize the objective tumor response. The following response criteria for the target lesions was used to assess the best overall response. • Complete Response (CR): Disappearance of all target lesions confirmed by repeat imaging 25 to 28 days after CR first documented. • Partial Response (PR): At least a 30% decrease in the sum of LD of target lesions, taking as reference the baseline sum LD, confirmed by repeat imaging 25 to 28 days after PR first documented. • Stable Disease (SD): Neither sufficient shrinkage to qualify for PR nor sufficient increase to qualify for PD, taking as references the smallest sum LD. • Progressive Disease (PD): At least a 20% increase in the sum of LD of target lesions, taking as reference the smallest sum LD recorded since treatment started, or the appearance of one or more new lesions. • d. Blood drawn for serum PK measurements, immunogenicity assays (anti-M200 antibodies), vascular growth factors, and measurement of bound and unbound α5β1 on peripheral blood monocytes. • e. A 3-mm punch biopsy of superficial tumor metastasis was obtained and frozen after the last treatment with M200 from patients who consented (not required for enrollment) to the procedure. […]

Assay [1] can be described thus: minimum effective in vitro concentration.
Assay [2] addresses α5β1 integrin binding to fibronectin (Homo sapiens, UniProt P05556+P08648). Put plainly: in vitro activity assay: inhibition of binding of α5β1 to fibronectin. It counts as biochemical.
The subject of a further assay is angiogenesis. Conditions: rabbit eye model; cited from earlier work.

Sequence of α5β1 integrin binding to fibronectin (P08648 42-894 limits assumed): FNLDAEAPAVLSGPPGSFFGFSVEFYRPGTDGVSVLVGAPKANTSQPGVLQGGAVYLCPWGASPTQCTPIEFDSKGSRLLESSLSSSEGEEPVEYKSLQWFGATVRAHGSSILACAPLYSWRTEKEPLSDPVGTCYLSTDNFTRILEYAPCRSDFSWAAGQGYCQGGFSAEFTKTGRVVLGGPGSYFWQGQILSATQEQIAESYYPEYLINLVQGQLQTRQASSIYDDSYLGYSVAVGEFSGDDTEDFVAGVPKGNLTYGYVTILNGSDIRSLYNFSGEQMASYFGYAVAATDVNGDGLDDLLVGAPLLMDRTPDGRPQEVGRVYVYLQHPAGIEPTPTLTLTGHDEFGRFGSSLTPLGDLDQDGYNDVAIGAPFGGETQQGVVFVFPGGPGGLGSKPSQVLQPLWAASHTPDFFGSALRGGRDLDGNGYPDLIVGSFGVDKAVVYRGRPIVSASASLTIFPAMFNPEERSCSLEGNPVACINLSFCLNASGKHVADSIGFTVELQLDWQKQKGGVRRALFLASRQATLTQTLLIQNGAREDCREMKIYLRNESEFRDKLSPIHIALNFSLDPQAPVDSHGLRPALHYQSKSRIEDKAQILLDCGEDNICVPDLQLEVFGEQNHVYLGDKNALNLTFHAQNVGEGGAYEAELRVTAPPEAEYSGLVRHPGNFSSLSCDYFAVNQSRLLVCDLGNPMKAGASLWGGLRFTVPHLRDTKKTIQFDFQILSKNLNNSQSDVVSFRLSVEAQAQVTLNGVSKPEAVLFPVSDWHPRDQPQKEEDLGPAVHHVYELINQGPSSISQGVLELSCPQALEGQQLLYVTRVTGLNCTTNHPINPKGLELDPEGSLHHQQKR
Sequence of α5β1 integrin binding to fibronectin (P08648 895-1049 limits assumed): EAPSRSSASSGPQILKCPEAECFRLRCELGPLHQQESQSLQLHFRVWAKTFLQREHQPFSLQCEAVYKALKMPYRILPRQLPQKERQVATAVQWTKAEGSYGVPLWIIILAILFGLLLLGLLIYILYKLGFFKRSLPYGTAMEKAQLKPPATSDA
Sequence of α5β1 integrin binding to fibronectin (P05556 21-798): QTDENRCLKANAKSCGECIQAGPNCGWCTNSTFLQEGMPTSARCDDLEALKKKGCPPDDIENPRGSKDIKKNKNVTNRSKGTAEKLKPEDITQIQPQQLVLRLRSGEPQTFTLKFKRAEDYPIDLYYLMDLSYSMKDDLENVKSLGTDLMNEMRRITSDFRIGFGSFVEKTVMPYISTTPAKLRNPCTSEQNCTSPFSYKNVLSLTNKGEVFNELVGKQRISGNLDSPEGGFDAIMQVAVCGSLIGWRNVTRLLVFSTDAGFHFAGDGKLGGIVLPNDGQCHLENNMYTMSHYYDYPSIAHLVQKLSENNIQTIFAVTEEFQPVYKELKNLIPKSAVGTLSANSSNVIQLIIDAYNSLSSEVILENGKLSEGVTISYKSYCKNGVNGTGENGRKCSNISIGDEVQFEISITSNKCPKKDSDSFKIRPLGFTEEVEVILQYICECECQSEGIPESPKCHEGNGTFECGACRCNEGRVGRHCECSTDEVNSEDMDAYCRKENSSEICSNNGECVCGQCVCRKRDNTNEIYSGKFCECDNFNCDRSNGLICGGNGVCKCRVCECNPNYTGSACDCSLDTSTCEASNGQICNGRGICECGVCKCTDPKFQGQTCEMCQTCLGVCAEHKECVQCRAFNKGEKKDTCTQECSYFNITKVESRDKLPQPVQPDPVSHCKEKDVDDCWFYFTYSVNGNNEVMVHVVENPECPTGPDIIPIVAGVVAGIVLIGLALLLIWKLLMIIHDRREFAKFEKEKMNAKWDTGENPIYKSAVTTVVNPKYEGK

B1: IIA1: parent mouse IgG1 class anti-α5β1 antibody shown to inhibit α5β1 integrin binding to fibronectin (antibody, V domains shown)
VH: MAVLGLLLCLVTFPSCVLSQVQLKESGPGLVAPSQSLSITCTISGFSLTDYGVHWVRQPPGKGLEWLVVIWSDGSSTYNSALKSRMTIRKDNSKSQVFLIMNSLQTDDSAMYYCARHGTYYGMTTTGDALDYWGQGTSVTVSS
VL: MDFQVQIFSFLLISASVIMSRGQIVLTQSPAIMSASLGERVTMTCTASSSVSSNYLHWYQQKPGSAPNLWIYSTSNLASGVPARFSGSGSGTSYSLTISSMEAEDAATYYCHQYLRSPPTFGGGTKLEIK
modifications: mus muscalus
With B1, the mean tumor volume in the assay with human NW231 tumors is reported as approximately 175 mm^3.

B2: M200: chimeric IgG4 anti-α5β1 antibody derived from IIA1; generic name volociximab (antibody, V domains shown)
VH: B1 VH
VL: MDFQVQIFSFLLISASVIMSRGQIVLTQSPAIMSASLGERVTMTCTASSSVSSNYLHWYQQKPGSAPNLWIYSTSNLASGVPARFSGSGSGTSYSLTISSMEAEDAATYYCHQYLRSPPTFGGGTKLEIKDMSVDMSV
modifications: chimeric antibody
notes: chimeric IgG4 anti-α5β1 antibody derived from IIA1; generic name volociximab
On to B2, for which the Response outcome is “(PD) (Progressive Disease (PD): At least a 20% increase in the sum of LD of target lesions, taking as reference the smallest sum LD recorded since treatment started, or the appearance of one or more new lesions.)” with refractory solid tumors (0.5 mg/kg, CRC patient); “(SD)” in the assay with refractory solid tumors (1.0 mg/kg, HCC patient); “(SD)” in the assay on refractory solid tumors (1.0 mg/kg, PC patient); “(PD) (Progressive Disease (PD): At least a 20% increase in the sum of LD of target lesions, taking as reference the smallest sum LD recorded since treatment started, or the appearance of one or more new lesions.)” with refractory solid tumors (2.5 mg/kg, CRC patient); “(PD) (Progressive Disease (PD): At least a 20% increase in the sum of LD of target lesions, taking as reference the smallest sum LD recorded since treatment started, or the appearance of one or more new lesions.)” in the assay with refractory solid tumors (2.5 mg/kg, MEL Ocular patient); “(SD)” in the assay on refractory solid tumors (2.5 mg/kg, NSCLC patient). Further, the Response outcome was “(PD) (Progressive Disease (PD): At least a 20% increase in the sum of LD of target lesions, taking as reference the smallest sum LD recorded since treatment started, or the appearance of one or more new lesions.)” in the assay on refractory solid tumors (5.0 mg/kg, EC patient); “(SD)” in the assay on refractory solid tumors (5.0 mg/kg, HCC patient); “(PD) (Progressive Disease (PD): At least a 20% increase in the sum of LD of target lesions, taking as reference the smallest sum LD recorded since treatment started, or the appearance of one or more new lesions.)” in the assay on refractory solid tumors (5.0 mg/kg, THY patient); “(SD)” in the assay with refractory solid tumors (10.0 mg/kg, BC patient); “(SD)” in the assay on refractory solid tumors (10.0 mg/kg, CRC patient (two patients)); “(PD) (Progressive Disease (PD): At least a 20% increase in the sum of LD of target lesions, taking as reference the smallest sum LD recorded since treatment started, or the appearance of one or more new lesions.)” with refractory solid tumors (10.0 mg/kg, MEL patient). Also, the Response outcome with refractory solid tumors (10.0 mg/kg, PARO patient) is given as “(SD)”; in the assay on refractory solid tumors (10.0 mg/kg, RCC patient), “(SD)”; in the assay with refractory solid tumors (15.0 mg/kg, EC patient), “(PD) (Progressive Disease (PD): At least a 20% increase in the sum of LD of target lesions, taking as reference the smallest sum LD recorded since treatment started, or the appearance of one or more new lesions.)”; in the assay on refractory solid tumors (15.0 mg/kg, PRO patient) it was “(PD) (Progressive Disease (PD): At least a 20% increase in the sum of LD of target lesions, taking as reference the smallest sum LD recorded since treatment started, or the appearance of one or more new lesions.)”. In addition, the “overall response outcome: progressive disease (PD)” value in the assay on refractory solid tumors (21 treated patients, 0.5-15 mg/kg) is 10 patients. In addition, the “minimum effective in vitro concentration” value in assay [1] fell in the range of 2 to 3 µg/mL. For the same molecule, the “concentration that produces 80% inhibition of binding of α5β1 to fibronectin” value in assay [2] amounted to 1 µg/mL. Besides, in the assay on angiogenesis, the “in vivo anti-angiogenic efficacy” value was “in vivo anti-angiogenic efficacy”.

The record behind these values is US7662384B2, “Use of anti-α5β1 antibodies to inhibit cancer cell proliferation” (Facet Biotech Corporation, priority 2004, dated 2010).
